Sequences and labels used below:
B1: myc-MICAL1 [human] / GRAF1b-GFP [human] (parent complex)
chain 1: MASPTSTNPAHAHFESFLQAQLCQDVLSSFQELCGALGLEPGGGLPQYHKIKDQLNYWSAKSLWTKLDKRAGQPVYQQGRACTSTKCLVVGAGPCGLRVAVELALLGARVVLVEKRTKFSRHNVLHLWPFTIHDLRALGAKKFYGRFCTGTLDHISIRQLQLLLLKVALLLGVEIHWGVTFTGLQPPPRKGSGWRAQLQPNPPAQLANYEFDVLISAAGGKFVPEGFKVREMRGKLAIGITANFVNGRTVEETQVPEISGVARIYNQSFFQSLLKATGIDLENIVYYKDDTHYFVMTAKKQCLLRLGVLRQDWPDTNRLLGSANVVPEALQRFTRAAADFATHGKLGKLEFAQDAHGQPDVSAFDFTSMMRAESSARVQEKHGARLLLGLVGDCLVEPFWPLGTGVARGFLAAFDAAWMVKRWAEGAESLEVLAERESLYQLLSQTSPENMHRNVAQYGLDPATRYPNLNLRAVTPNQVRDLYDVLAKEPVQRNNDKTDTGMPATGSAGTQEELLRWCQEQTAGYPGVHVSDLSSSWADGLALCALVYRLQPGLLEPSELQGLGALEATAWALKVAENELGITPVVSAQAVVAGSDPLGLIAYLSHFHSAFKSMAHSPGPVSQASPGTSSAVLFLSKLQRTLQRSRAKENAEDAGGKKLRLEMEAETPSTEVPPDPEPGVPLTPPSQHQEAGAGDLCALCGEHLYVLERLCVNGHFFHRSCFRCHTCEATLWPGGYEQHPGDGHFYCLQHLPQTDHKAEGSDRGPESPELPTPSENSMPPGLSTPTASQEGAGPVPDPSQPTRRQIRLSSPERQRLSSLNLTPDPEMEPPPKPPRSCSALARHALESSFVGWGLPVQSPQALVAMEKEEKESPFSSEEEEEDVPLDSDVEQALQTFAKTSGTMNNYPTWRRTLLRRAKEEEMKRFCKAQTIQRRLNEIEAALRELEAEGVKLELALRRQSSSPEQQKKLWVGQLLQLVDKKNSLVAEEAELMITVQELNLEEKQWQLDQELRGYMNREENLKTAADRQAEDQVLRKLVDLVNQRDALIRFQEERRLSELALGTGAQG
chain 2: MGLPALEFSDCCLDSPHFRETLKSHEAELDKTNKFIKELIKDGKSLISALKNLSSAKRKFADSLNEFKFQCIGDAETDDEMCIARSLQEFATVLRNLEDERIRMIENASEVLITPLEKFRKEQIGAAKEAKKKYDKETEKYCGILEKHLNLSSKKKESQLQEADSQVDLVRQHFYEVSLEYVFKVQEVQERKMFEFVEPLLAFLQGLFTFYHHGYELAKDFGDFKTQLTISIQNTRNRFEGTRSEVESLMKKMKENPLEHKTISPYTMEGYLYVQEKRHFGTSWVKHYCTYQRDSKQITMVPFDQKSGGKGGEDESVILKSCTRRKTDSIEKRFCFDVEAVDRPGVITMQALSEEDRRLWMEAMDGREPVYNSNKDSQSEGTAQLDSIGFSIIRKCIHAVETRGINEQGLYRIVGVNSRVQKLLSVLMDPKTASETETDICAEWEIKTITSALKTYLRMLPGPLMMYQFQRSFIKAAKLENQESRVSEIHSLVHRLPEKNRQMLQLLMNHLANVANNHKQNLMTVANLGVVFGPTLLRPQEETVAAIMDIKFQNIVIEILIENHEKIFNTVPDMPLTNAQLHLSRKKSSDSKPPSCSERPLTLFHTVQSTEKQEQRNSIINSSLESVSSNPNSILNSSSSLQPNMNSSDPDLAVVKPTRPNSLPPNPSPTSPLSPSWPMFSAPSSPMPTSSTSSDSSPVSTPFRKAKALYACKAEHDSELSFTAGTVFDNVHPSQEPGWLEGTLNGKTGLIPENYVEFL
B2: myc-MICAL1 [human] / GRAF2-GFP [human] (parent complex)
chain 1: B1 chain 1
chain 2: MGLQPLEFSDCYLDSPWFRERIRAHEAELERTNKFIKELIKDGKNLIAATKSLSVAQRKFAHSLRDFKFEFIGDAVTDDERCIDASLREFSNFLKNLEEQREIMALSVTETLIKPLEKFRKEQLGAVKEEKKKFDKETEKNYSLIDKHLNLSAKKKDSHLQEADIQVEQNRQHFYELSLEYVCKLQEIQERKKFEFVEPMLSFFQGMFTFYHQGHELAKDFNHYKMELQINIQNTRNRFEGTRSEVEELMNKIRQNPKDHKRASQFTAEGYLYVQEKRPAPFGSSWVKHYCMYRKAAKKFNMIPFEHRSGGKLGDGEVFFLKECTKRHTDSIDRRFCFDIEAADRPGVSLTMQAFSEEERKQWLEALGGKEALSHSFNTAIIPRPEGNAQLDKMGFTIIRKCISAVETRGINDQGLYRVVGVSSKVQRLLSMLMDVKTCNEVDLENSADWEVKTITSALKQYLRSLPEPLMTYELHGDFIVPAKSGSPESRVNAIHFLVHKLPEKNKEMLDILVKHLTNVSNHSKQNLMTVANLGVVFGPTLMRPQEETVAALMDLKFQNIVVEILIENHEKIFRTPPDTTFPEPTCLSASPPNAPPRQSKRQGQRTKRPVAVYNLCLELEDGDNPYPSKEDTPTSSLDSLSSPSPVTTAVPGPPGPDKNHLLADGGSFGDWASTIPGQTRSSMVQWLNPQSPTTTSSNSAVTPLSPGSSPFPFSPPATVADKPPESIRSRKARAVYPCEAEHSSELSFEIGAIFEDVQTSREPGWLEGTLNGKRGLIPQNYVKLL
B3: GFP-VAPA [human] / myc-WDR44 [human] (parent complex)
chain 1: MASASGAMAKHEQILVLDPPTDLKFKGPFTDVVTTNLKLRNPSDRKVCFKVKTTAPRRYCVRPNSGIIDPGSTVTVSVMLQPFDYDPNEKSKHKFMVQTIFAPPNTSDMEAVWKEAKPDELMDSKLRCVFEMPNENDKLNDMEPSKAVPLNASKQDGPMPKPHSVSLNDTETRKLMEECKRLQGEMMKLSEENRHLRDEGLRLRKVAHSDKPGSTSTASFRDNVTSPLPSLLVVIAAIFIGFFLGKFIL
chain 2: MASESDTEEFYDAPEDVHLGGGYPVGSPGKVGLSTFKETENTAYKVGNESPVQELKQDVSKKIIESIIEESQKVLQLEDDSLDSKGKELSDQATASPIVARTDLSNIPGLLAIDQVLPEESQKAESQNTFEETELELKKCFPSDETCEKPVDETTKLTQTSSTEQLNVLETETEVLNKEAVEVKGGGDVLEPVSSDSLSTKDFAAVEEVAPAKPPRHLTPEPDIVASTKKPVPARPPPPTNFPPPRPPPPSRPAPPPRKRKSELEFETLKTPDIDVPKENITSDSLLTASMASESTVKDSQPSLDLASATSGDKIVTAQENGKAPDGQTVAGEVMGPQRPRSNSGRELTDEEILASVMIKNLDTGEEIPLSLAEEKLPTGINPLTLHIMRRTKEYVSNDAAQSDDEEKLQSQPTDTDGGRLKQKTTQLKKFLGKSVKRAKHLAEEYGERAINKVKSVRDEVFHTDQDDPSSSDDEGMPYTRPVKFKAAHGFKGPYDFDQIKVVQDLSGEHMGAVWTMKFSHCGRLLASAGQDNVVRIWALKNAFDYFNNMRMKYNTEGRVSPSPSQESLSSSKSDTDTGVCSGTDEDPDDKNAPFRQRPFCKYKGHTADLLDLSWSKNYFLLSSSMDKTVRLWHISRRECLCCFQHIDFVTAIAFHPRDDRYFLSGSLDGKLRLWNIPDKKVALWNEVDGQTKLITAANFCQNGKYAVIGTYDGRCIFYDTEHLKYHTQIHVRSTRGRNKVGRKITGIEPLPGENKILVTSNDSRIRLYDLRDLSLSMKYKGYVNSSSQIKASFSHDFTYLVSGSEDKYVYIWSTYHDLSKFTSVRRDRNDFWEGIKAHNAVVTSAIFAPNPSLMLSLDVQSEKSEGNEKSEDAEVLDATPSGIMKTDNTEVLLSADFTGAIKVFVNKRKNVS

The first assay covers variants of B1. In words: co-immunoprecipitation (IP with α-myc-coated beads, quantified western blot); transfected 293T cells; n = 3–5; means ± SEM; parent: 1; read off a plot. (In general: Immunoblotting shows a protein as a band on a membrane.)
With chain 1 K832A, the ratio to parent is ~0.05.

The variants in the next assay derive from B2. In words: co-immunoprecipitation (IP with α-myc-coated beads, quantified western blot); transfected 293T cells; n = 3 or 4; means ± SEM; parent: 1; read off a plot.
As for chain 1 K832A, the ratio to parent is ~0.03.

In another assay the parent is B3. As to the kind of experiment: co-immunoprecipitation (IP with α-GFP, quantified western blot); transfected 293T cells; n = 3 or 4; means ± SEM; parent: 1; read off a plot.
On to chain 1 K94D, chain 1 M96D, for which the ratio to parent is ~0.4.

Source of the values: paper PMC7199855, “GRAF2, WDR44, and MICAL1 mediate Rab8/10/11–dependent export of E-cadherin, MMP14, and CFTR ΔF508” (The Journal of Cell Biology, 2020).
